These results are taken from paper PMC4622713.

The target in test [1] is Remicade® (infliximab, reference medicinal product). The test is described as follows: ELISA. A general note: An ELISA detects its analyte on a solid surface through an enzyme-linked reagent.
The target in test [2] is CT-P13 (Remsima®, infliximab biosimilar). The test is described as follows: ELISA.
Test [3] has as its target FcRn (UniProt P55899). The test is described as follows: SPR. (In general: Surface plasmon resonance follows binding to a sensor surface in real time, without labels.)
UniProt P55899, sequence (P55899 whole entry, looked up, tested part not stated): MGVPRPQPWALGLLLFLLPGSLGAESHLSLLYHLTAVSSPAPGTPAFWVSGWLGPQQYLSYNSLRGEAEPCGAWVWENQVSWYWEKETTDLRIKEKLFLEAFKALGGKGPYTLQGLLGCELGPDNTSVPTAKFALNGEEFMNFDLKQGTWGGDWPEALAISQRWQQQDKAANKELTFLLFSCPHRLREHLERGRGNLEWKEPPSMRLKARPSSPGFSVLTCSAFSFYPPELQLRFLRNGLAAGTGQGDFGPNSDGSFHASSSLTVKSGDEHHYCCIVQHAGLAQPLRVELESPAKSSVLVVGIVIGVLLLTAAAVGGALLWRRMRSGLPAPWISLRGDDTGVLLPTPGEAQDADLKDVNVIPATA

Take C1q (complex): the relative binding affinity, average (%) in test [1] came to 98%; in test [2], 100%. In turn, “CT-P13 (Remsima®, infliximab biosimilar) (antibody)” gave a relative binding affinity, average (%) in test [3] of 101%.

“Remicade® (infliximab, reference medicinal product) (antibody)” had a relative binding affinity, average (%) in test [3] of 97%.
